Source: paper PMC11319201 (2024)

Key:
[1] = target: STAG2^R370Q–RAD21 complex (human | , UniProt Q8N3U4 1-1231; O60216 1-631, R370Q); assay: ITC
[2] = target: T1, STAG2–RAD21 complex (wild type) (human | , UniProt Q8N3U4 1-1231; O60216 1-631); assay: ITC
T1 chain 1: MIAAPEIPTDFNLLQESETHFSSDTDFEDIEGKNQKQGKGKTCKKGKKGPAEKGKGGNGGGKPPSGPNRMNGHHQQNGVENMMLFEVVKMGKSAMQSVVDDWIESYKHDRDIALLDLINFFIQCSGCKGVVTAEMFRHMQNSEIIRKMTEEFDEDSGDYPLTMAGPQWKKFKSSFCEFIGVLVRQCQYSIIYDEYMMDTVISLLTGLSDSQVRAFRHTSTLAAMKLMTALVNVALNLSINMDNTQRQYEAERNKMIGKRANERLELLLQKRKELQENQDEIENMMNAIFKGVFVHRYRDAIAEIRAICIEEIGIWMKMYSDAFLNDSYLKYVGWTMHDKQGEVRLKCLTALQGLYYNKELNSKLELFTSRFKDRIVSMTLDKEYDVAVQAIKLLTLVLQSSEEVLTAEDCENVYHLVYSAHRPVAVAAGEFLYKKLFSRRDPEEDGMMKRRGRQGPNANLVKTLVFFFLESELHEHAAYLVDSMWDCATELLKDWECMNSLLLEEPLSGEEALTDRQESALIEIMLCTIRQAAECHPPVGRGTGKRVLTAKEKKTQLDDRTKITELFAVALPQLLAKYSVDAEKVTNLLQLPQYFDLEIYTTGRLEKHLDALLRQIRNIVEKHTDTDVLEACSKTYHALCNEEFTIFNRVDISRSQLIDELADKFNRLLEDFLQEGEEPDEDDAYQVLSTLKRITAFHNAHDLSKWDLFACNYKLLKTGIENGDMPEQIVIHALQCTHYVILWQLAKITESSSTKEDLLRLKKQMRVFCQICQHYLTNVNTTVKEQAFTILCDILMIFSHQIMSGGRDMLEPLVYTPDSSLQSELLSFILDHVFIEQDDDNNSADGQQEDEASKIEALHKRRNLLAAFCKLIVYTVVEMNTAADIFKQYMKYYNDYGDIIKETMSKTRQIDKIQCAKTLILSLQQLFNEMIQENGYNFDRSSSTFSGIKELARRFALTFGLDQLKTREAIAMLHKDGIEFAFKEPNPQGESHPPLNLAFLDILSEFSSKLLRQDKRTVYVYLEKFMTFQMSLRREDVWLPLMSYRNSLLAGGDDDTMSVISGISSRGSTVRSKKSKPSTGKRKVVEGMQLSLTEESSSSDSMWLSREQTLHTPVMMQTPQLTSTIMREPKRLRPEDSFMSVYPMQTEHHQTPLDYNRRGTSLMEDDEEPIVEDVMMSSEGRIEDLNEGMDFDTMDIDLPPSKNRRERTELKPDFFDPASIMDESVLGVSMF
T1 chain 2: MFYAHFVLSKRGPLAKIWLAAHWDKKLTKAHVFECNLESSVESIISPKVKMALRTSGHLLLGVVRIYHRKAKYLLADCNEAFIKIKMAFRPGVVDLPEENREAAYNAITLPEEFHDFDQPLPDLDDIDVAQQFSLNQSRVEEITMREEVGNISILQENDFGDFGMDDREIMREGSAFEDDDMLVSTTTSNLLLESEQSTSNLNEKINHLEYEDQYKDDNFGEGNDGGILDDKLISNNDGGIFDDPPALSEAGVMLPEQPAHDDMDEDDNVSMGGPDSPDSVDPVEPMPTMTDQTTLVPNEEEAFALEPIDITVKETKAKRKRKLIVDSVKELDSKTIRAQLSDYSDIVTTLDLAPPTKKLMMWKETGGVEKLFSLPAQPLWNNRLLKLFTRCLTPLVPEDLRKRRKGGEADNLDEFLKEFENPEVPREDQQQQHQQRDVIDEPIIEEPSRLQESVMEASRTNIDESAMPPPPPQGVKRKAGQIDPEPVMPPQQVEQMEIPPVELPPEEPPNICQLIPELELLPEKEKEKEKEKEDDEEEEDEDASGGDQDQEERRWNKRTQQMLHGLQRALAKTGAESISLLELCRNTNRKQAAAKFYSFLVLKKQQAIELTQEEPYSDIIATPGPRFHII

Chain of STAG2^R370Q–RAD21 complex (Q8N3U4 whole entry R370Q, chain 1 of 2, one chain of several): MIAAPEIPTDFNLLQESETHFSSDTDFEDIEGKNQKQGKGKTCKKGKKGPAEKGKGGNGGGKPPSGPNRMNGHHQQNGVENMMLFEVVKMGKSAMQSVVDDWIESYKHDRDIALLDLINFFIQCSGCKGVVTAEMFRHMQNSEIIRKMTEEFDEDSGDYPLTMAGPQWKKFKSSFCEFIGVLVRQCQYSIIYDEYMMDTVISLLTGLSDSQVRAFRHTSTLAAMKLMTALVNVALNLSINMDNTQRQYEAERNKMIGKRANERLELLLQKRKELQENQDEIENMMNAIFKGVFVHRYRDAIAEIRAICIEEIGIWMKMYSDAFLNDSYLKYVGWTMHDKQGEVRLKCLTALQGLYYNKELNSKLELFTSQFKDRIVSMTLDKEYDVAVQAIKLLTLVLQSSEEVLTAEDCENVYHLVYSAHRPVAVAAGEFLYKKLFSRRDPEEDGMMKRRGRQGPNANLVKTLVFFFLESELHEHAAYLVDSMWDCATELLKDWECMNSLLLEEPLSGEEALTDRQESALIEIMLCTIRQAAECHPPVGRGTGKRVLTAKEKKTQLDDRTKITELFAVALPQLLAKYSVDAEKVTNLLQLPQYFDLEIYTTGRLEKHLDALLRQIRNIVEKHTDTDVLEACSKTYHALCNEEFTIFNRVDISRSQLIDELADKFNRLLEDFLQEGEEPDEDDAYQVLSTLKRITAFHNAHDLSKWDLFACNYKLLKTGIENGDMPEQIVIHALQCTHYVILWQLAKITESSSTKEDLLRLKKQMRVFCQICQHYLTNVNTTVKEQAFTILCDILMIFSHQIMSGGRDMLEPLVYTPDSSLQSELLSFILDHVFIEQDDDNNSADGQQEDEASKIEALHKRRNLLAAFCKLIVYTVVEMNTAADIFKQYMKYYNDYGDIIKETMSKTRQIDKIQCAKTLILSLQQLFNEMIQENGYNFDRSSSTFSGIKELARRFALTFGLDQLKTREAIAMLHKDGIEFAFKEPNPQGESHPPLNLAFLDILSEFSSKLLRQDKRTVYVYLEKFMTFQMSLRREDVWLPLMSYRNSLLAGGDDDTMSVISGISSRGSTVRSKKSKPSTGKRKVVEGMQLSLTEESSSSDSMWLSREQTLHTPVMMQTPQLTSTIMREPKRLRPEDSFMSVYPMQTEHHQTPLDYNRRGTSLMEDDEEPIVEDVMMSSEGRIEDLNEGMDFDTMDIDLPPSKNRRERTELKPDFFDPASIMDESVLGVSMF

Kd [1]: 21.7 µM
Kd [2]: 1.92 µM
Binder: DVSVYDFEEE [CTCF peptide]
